Measurements reported in PMC8070792, “Impaired Ca^2+ Sensitivity of a Novel GCAP1 Variant Causes Cone Dystrophy and Leads to Abnormal Synaptic Transmission Between Photoreceptors and Bipolar Cells” (International Journal of Molecular Sciences, 2021).
Read-outs that look alike come from different tables or passages of the source.

How the values were obtained:
[1] = molecular target: T1, human guanylate cyclase 2 (GC2) (human, UniProt P51841 51-1108)
T1 sequence (looked up): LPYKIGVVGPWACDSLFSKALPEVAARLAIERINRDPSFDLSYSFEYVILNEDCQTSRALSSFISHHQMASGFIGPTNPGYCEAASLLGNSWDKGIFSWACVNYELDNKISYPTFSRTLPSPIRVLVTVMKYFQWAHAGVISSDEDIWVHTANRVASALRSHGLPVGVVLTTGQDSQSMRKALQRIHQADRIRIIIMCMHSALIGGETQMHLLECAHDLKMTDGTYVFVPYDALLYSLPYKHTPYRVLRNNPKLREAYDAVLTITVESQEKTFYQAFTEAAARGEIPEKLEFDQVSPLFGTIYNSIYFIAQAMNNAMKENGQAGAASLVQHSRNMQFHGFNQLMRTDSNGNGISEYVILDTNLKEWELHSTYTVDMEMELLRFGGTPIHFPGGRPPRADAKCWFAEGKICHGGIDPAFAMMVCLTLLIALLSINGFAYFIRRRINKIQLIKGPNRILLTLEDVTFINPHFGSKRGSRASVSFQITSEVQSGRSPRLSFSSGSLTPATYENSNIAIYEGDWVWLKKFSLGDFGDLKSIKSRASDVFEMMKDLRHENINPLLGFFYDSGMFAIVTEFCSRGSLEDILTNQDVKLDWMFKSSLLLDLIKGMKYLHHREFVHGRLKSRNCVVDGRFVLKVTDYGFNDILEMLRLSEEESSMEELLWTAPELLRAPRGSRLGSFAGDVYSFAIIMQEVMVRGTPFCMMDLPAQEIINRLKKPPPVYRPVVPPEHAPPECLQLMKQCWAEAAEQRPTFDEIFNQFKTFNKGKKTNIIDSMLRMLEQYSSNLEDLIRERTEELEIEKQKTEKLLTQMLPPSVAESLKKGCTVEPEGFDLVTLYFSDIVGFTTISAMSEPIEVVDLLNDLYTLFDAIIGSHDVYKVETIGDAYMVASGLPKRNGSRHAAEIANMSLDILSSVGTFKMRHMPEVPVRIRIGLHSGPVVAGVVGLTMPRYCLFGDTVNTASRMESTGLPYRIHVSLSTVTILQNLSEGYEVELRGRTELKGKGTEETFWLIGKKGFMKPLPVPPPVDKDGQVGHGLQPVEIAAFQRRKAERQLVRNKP

[2] = molecular target: T2, human guanylate cyclase 1 (GC1) (human, UniProt Q02846 52-1103)
T2 sequence (looked up): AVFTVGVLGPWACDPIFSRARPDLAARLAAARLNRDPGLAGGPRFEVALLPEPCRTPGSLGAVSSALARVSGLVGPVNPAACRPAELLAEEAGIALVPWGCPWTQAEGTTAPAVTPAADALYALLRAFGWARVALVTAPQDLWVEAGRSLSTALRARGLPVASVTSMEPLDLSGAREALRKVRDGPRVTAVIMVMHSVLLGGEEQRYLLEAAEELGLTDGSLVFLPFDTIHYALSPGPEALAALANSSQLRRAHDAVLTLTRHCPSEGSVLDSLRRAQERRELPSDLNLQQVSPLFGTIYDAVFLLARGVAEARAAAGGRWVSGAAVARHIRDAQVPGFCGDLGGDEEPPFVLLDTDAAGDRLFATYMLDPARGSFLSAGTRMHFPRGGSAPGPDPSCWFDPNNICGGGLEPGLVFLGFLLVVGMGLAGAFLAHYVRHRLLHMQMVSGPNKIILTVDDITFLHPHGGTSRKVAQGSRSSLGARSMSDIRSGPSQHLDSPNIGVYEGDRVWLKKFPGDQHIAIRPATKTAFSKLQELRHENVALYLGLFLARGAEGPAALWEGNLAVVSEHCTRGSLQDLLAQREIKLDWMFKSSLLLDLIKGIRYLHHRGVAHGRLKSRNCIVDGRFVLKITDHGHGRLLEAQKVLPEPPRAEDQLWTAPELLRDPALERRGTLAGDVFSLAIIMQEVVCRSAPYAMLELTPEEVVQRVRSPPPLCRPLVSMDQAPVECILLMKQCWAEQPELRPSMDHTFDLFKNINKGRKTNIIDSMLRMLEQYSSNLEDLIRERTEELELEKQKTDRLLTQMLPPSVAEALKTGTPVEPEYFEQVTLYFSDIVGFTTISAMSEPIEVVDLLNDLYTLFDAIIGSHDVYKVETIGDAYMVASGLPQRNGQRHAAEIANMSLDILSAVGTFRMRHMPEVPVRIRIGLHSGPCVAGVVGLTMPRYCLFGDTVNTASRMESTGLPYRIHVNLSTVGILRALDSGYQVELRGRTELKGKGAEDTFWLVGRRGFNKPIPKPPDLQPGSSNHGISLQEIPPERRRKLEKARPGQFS

[3] = molecular target: the molecule itself; experiment: SEC; analytical SEC on Superose 12 10/300 GL; 42 µM protein, 200 µl injected; 20 mM Tris-HCl pH 7.5, 150 mM KCl, 1 mM DTT; with 500 µM EGTA + 1 mM Mg2+ or 500 µM Ca2+ + 1 mM Mg2+; apparent molecular mass from a calibration curve
[4] = molecular target: T1, human guanylate cyclase 2 (GC2); experiment: cell-based or functional assay
[5] = molecular target: T2, human guanylate cyclase 1 (GC1); experiment: cell-based or functional assay

B1: wild-type human GCAP1-E6S (guanylate cyclase-activating protein 1, myristoylated) (natural protein)
chain: MGNVMSGKSVEELSSTECHQWYKKFMTECPSGQLTLYEFRQFFGLKNLSPSASQYVEQMFETFDFNKDGYIDFMEYVAALSLVLKGKVEQKLRWYFKLYDVDGNGCIDRDELLTIIQAIRAINPCSDTTMTAEEFTDTVFSKIDVNGDGELSLEEFIEGVQKDQMLLDTLTRSLDLTRIVRRLQNGEQDEEGADEAAEAAG
modifications: myristoylation on the N-terminal Gly residue
**Q.** Which results are given for B1?
**A.** X-fold of Ca2+-dependent regulation of GC2 (cGMP synthesis by HEK293 membranes with 5 µM GCAP1, low Ca2+ <19 nM against high Ca2+ ~30 µM) [1]: 10.8; X-fold of Ca2+-dependent regulation of GC1 (cGMP synthesis by HEK293 membranes with 5 µM GCAP1, low Ca2+ <19 nM against high Ca2+ ~30 µM) [2]: 37.4

B2: GCAP1 N104K-G105R (guanylate cyclase-activating protein 1, myristoylated, on the E6S background) (natural protein, human, UniProt P43080 1-201, looked up)
chain: MGNVMSGKSVEELSSTECHQWYKKFMTECPSGQLTLYEFRQFFGLKNLSPSASQYVEQMFETFDFNKDGYIDFMEYVAALSLVLKGKVEQKLRWYFKLYDVDGKRCIDRDELLTIIQAIRAINPCSDTTMTAEEFTDTVFSKIDVNGDGELSLEEFIEGVQKDQMLLDTLTRSLDLTRIVRRLQNGEQDEEGADEAAEAAG
modifications: myristoylation on the N-terminal Gly residue
notes: cDNA in pET-11a between NdeI and NheI; E6S introduced to allow myristoylation by yeast NMT; N104K and G105R introduced by site-directed mutagenesis; N104K-G105R is the patient's variant; E6S is a change made by people; Myristoylation on the N-terminal Gly implies that the initiator Met is removed (surmised); No tag is mentioned; also called N104K-G105R GCAP1; double mutant; source: E. coli …
**Q.** B2 was tested. Which “stoichiometry N” value [3] did it give?
**A.** The value was 2.

**Q.** What about the “X-fold of Ca2+-dependent regulation of GC2 (cGMP synthesis by HEK293 membranes with 5 µM GCAP1, low Ca2+ <19 nM against high Ca2+ ~30 µM)” value [4] of the same binder?
**A.** Its value is 0.6.

**Q.** And the “X-fold of Ca2+-dependent regulation of GC1 (cGMP synthesis by HEK293 membranes with 5 µM GCAP1, low Ca2+ <19 nM against high Ca2+ ~30 µM)” value [5]?
**A.** Its value is 0.47.
